# B1: NRC3_wobSeed74_DR3_A18G_o1 (dsDNA)
# DNA 1: GCTCTAGTTGGTCACGGGGGTCACACACGACGGGTAGCGATTGACAGCGTAGAATGAAGG
# DNA 2: CCTTCATTCTACGCTGTCAATCGCTACCCGTCGTGTGTGACCCCCGTGACCAACTAGAGC
# B2: NRC3_wobSeed26_DR1_C22A_o1 (dsDNA)
# DNA 1: GCTCTAGTTGGTCAAAGGTCAAACACTCGAAATGCGGCGATTGACAGCGTAGAATGAAGG
# DNA 2: CCTTCATTCTACGCTGTCAATCGCCGCATTTCGAGTGTTTGACCTTTGACCAACTAGAGC
# B3: NRC3_wobSeed50_DR2_T20C_o1 (dsDNA)
# DNA 1: GCCCTAGTTGGTCAGGAGGCCACACACCGGATATGAGCGATTGACAGCGTAGAATGAAGG
# DNA 2: CCTTCATTCTACGCTGTCAATCGCTCATATCCGGTGTGTGGCCTCCTGACCAACTAGGGC
# B4: NRC3_wobSeed50_DR2_A17G_o1 (dsDNA)
# DNA 1: GCCCTAGTTGGTCAGGGGGTCACACACCGGATATGAGCGATTGACAGCGTAGAATGAAGG
# DNA 2: CCTTCATTCTACGCTGTCAATCGCTCATATCCGGTGTGTGACCCCCTGACCAACTAGGGC
# B5: NRC3_wobSeed77_DR3_C8A_o1 (dsDNA)
# DNA 1: GCACTTAAGGGTCAACGAGGTTATAGCACGCGTATAGCGATTGACAGCGTAGAATGAAGG
# DNA 2: CCTTCATTCTACGCTGTCAATCGCTATACGCGTGCTATAACCTCGTTGACCCTTAAGTGC
# B6: NRC3_random_hg19_171_o1 (dsDNA)
# DNA 1: GCGGGCTACTGCCTAGGGTGCCTTGGCACAGCCAGCGCGATTGACAGCGTAGAATGAAGG
# DNA 2: CCTTCATTCTACGCTGTCAATCGCGCTGGCTGTGCCAAGGCACCCTAGGCAGTAGCCCGC
# B7: NRC3_random_hg19_381_o1 (dsDNA)
# DNA 1: GCCATGAGCGTGGAATGTTCTTCCATTTGTTCATATGCGATTGACAGCGTAGAATGAAGG
# DNA 2: CCTTCATTCTACGCTGTCAATCGCATATGAACAAATGGAAGAACATTCCACGCTCATGGC
# B8: NRC3_wobSeed72_DR2_T13C_o1 (dsDNA)
# DNA 1: GCTCGAGTAGGTCACGGGGGCATTCAGGGATGAAGAGCGATTGACAGCGTAGAATGAAGG
# DNA 2: CCTTCATTCTACGCTGTCAATCGCTCTTCATCCCTGAATGCCCCCGTGACCTACTCGAGC
# B9: NRC3_wobSeed72_DR2_A6T_o1 (dsDNA)
# DNA 1: GCTCGTGTAGGTTACGGGGGCATTCAGGGATGAAGAGCGATTGACAGCGTAGAATGAAGG
# DNA 2: CCTTCATTCTACGCTGTCAATCGCTCTTCATCCCTGAATGCCCCCGTAACCTACACGAGC
# B10: NRC3_random_hg19_190_o1 (dsDNA)
# DNA 1: GCGCCTCAATTCTAACTTGATTGCTTCCCTAGAGGCGCGATTGACAGCGTAGAATGAAGG
# DNA 2: CCTTCATTCTACGCTGTCAATCGCGCCTCTAGGGAAGCAATCAAGTTAGAATTGAGGCGC
# B11: NRC3_random_hg19_54_o1 (dsDNA)
# DNA 1: GCAGGTAATGTATTCACAGGTTCTGGGACGTCATTGGCGATTGACAGCGTAGAATGAAGG
# DNA 2: CCTTCATTCTACGCTGTCAATCGCCAATGACGTCCCAGAACCTGTGAATACATTACCTGC
# B12: NRC3_random_hg19_27_o1 (dsDNA)
# DNA 1: GCTCCCTGCCCAGTTCTGTGCAGGGTGTGCGTGTCTGCGATTGACAGCGTAGAATGAAGG
# DNA 2: CCTTCATTCTACGCTGTCAATCGCAGACACGCACACCCTGCACAGAACTGGGCAGGGAGC
# B13: NRC3_random_hg19_309_o1 (dsDNA)
# DNA 1: GCCTTAGCTGGGATCTTATCTGTACAGTATCTGGGAGCGATTGACAGCGTAGAATGAAGG
# DNA 2: CCTTCATTCTACGCTGTCAATCGCTCCCAGATACTGTACAGATAAGATCCCAGCTAAGGC
# B14: NRC3_wobSeed113_DR4_T17G_o1 (dsDNA)
# DNA 1: GCATATGTAGGTTAGCGGGGGTCATTCAGACTAGGCGCGATTGACAGCGTAGAATGAAGG
# DNA 2: CCTTCATTCTACGCTGTCAATCGCGCCTAGTCTGAATGACCCCCGCTAACCTACATATGC
# B15: NRC3_wobSeed49_DR2_C7A_o1 (dsDNA)
# DNA 1: GCCAAAATAGGTCAAGAGGTCAAAGTCCGCTTCCCGGCGATTGACAGCGTAGAATGAAGG
# DNA 2: CCTTCATTCTACGCTGTCAATCGCCGGGAAGCGGACTTTGACCTCTTGACCTATTTTGGC
# B16: NRC3_wobSeed89_DR3_A15G_o1 (dsDNA)
# DNA 1: GCCTATGTAGGTTAGGGGGGTCATTCAGTTTGAAAGGCGATTGACAGCGTAGAATGAAGG
# DNA 2: CCTTCATTCTACGCTGTCAATCGCCTTTCAAACTGAATGACCCCCCTAACCTACATAGGC
# B17: NRC3_wobSeed89_DR3_A9G_o1 (dsDNA)
# DNA 1: GCCTATGTGGGTTAAGGGGGTCATTCAGTTTGAAAGGCGATTGACAGCGTAGAATGAAGG
# DNA 2: CCTTCATTCTACGCTGTCAATCGCCTTTCAAACTGAATGACCCCCTTAACCCACATAGGC
# B18: NRC3_wobSeed89_DR3_A15C_o1 (dsDNA)
# DNA 1: GCCTATGTAGGTTACGGGGGTCATTCAGTTTGAAAGGCGATTGACAGCGTAGAATGAAGG
# DNA 2: CCTTCATTCTACGCTGTCAATCGCCTTTCAAACTGAATGACCCCCGTAACCTACATAGGC
# B19: NRC3_random_hg19_418_o1 (dsDNA)
# DNA 1: GCTGTGAGCATCACTTCTTGTTGGTCAGAGTAAGAGGCGATTGACAGCGTAGAATGAAGG
# DNA 2: CCTTCATTCTACGCTGTCAATCGCCTCTTACTCTGACCAACAAGAAGTGATGCTCACAGC
# B20: NRC3_random_hg19_55_o1 (dsDNA)
# DNA 1: GCTTGAACGCCTGCTTTGTGCTGATGCAGATCCAGAGCGATTGACAGCGTAGAATGAAGG
# DNA 2: CCTTCATTCTACGCTGTCAATCGCTCTGGATCTGCATCAGCACAAAGCAGGCGTTCAAGC
# B21: NRC3_wobSeed120_DR4_G7A_o1 (dsDNA)
# DNA 1: GCCCGAATAGGTTACGAGGGGGCATTCAGTGCGAATGCGATTGACAGCGTAGAATGAAGG
# DNA 2: CCTTCATTCTACGCTGTCAATCGCATTCGCACTGAATGCCCCCTCGTAACCTATTCGGGC
# B22: NRC3_random_hg19_130_o1 (dsDNA)
# DNA 1: GCGAGATCAAGACCATCCTGGCTAACATGGTGAAACGCGATTGACAGCGTAGAATGAAGG
# DNA 2: CCTTCATTCTACGCTGTCAATCGCGTTTCACCATGTTAGCCAGGATGGTCTTGATCTCGC
# B23: NRC3_wobSeed17_DR0_A14G_o1 (dsDNA)
# DNA 1: GCATATGTAGGTTGGGGTCATTCAGAAAGTAGGGAAGCGATTGACAGCGTAGAATGAAGG
# DNA 2: CCTTCATTCTACGCTGTCAATCGCTTCCCTACTTTCTGAATGACCCCAACCTACATATGC
# B24: NRC3_random_hg19_209_o1 (dsDNA)
# DNA 1: GCGAGTTTCCAGCAGATGGCCATCACAACAATACTGGCGATTGACAGCGTAGAATGAAGG
# DNA 2: CCTTCATTCTACGCTGTCAATCGCCAGTATTGTTGTGATGGCCATCTGCTGGAAACTCGC
# B25: NRC3_wobSeed25_DR1_A5C_o1 (dsDNA)
# DNA 1: GCCACACTAGGTCAAAGGTCAAAGTCGAGCCAACCAGCGATTGACAGCGTAGAATGAAGG
# DNA 2: CCTTCATTCTACGCTGTCAATCGCTGGTTGGCTCGACTTTGACCTTTGACCTAGTGTGGC
# B26: NRC3_wobSeed124_DR5_o1 (dsDNA)
# DNA 1: GCCCTACTGGGCCATTCAGAGGTCATTGATCATATGGCGATTGACAGCGTAGAATGAAGG
# DNA 2: CCTTCATTCTACGCTGTCAATCGCCATATGATCAATGACCTCTGAATGGCCCAGTAGGGC
# Experiments:
# LXRb:RXRa = LXRb:RXRa (Homo sapiens, UniProt P55055;P19793 full;full); test: no ligand; PBM; 270 nM : 90 nM RXRa; PBS pH 7.4, 2% milk, 0.02% Triton X-100, 1 mM DTT, BSA, 0.4 mg/ml salmon testes DNA; details: tags: His kept;His cleaved; copies: 1;1; label: surface-attached array probe
# Method in brief: (§1)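 Custom Agilent 4×180K protein-binding microarrays carried double-stranded probes, each with a 34-nt variable region. These regions held direct-repeat seeds, single-nucleotide variants, half-site ablations and random human genomic background sequences. Ligand-free nuclear receptor dimers were incubated on the arrays for 1 h, antibodies against each partner (one per run) detected binding, and scanned fluorescence was regression-normalized. Binding z-scores take the random background probes as reference.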
# RXRa = RXRa (Homo sapiens, UniProt P19793); test: no ligand; PBM; 180 nM; PBS pH 7.4, 2% milk, 0.02% Triton X-100, 1 mM DTT, BSA, 0.4 mg/ml salmon testes DNA; details: tags: His cleaved; chain copies: 2; label: surface-attached array probe
# VDR:RXRa = VDR:RXRa (Homo sapiens, UniProt P11473;P19793 full;full); test: no ligand; PBM; 270 nM : 90 nM RXRa; PBS pH 7.4, 2% milk, 0.02% Triton X-100, 1 mM DTT, BSA, 0.4 mg/ml salmon testes DNA; details: tags: His kept;His cleaved; copies: 1;1; label: surface-attached array probe
# Method in brief: as §1
# FXR:RXRa = FXR:RXRa (Homo sapiens, UniProt Q96RI1;P19793 full;full); test: as above; details: tags: His kept;His cleaved; copies: 1;1; label: surface-attached array probe
# Method in brief: as §1
# RARb:RXRa = RARb:RXRa (Homo sapiens, UniProt P10826;P19793 full;full); test: as above; details: tags: His kept;His cleaved; copies: 1;1; label: surface-attached array probe
# Method in brief: as §1
# RARg:RXRa = RARg:RXRa (Homo sapiens, UniProt P13631;P19793 full;full); test: as above; details: tags: His kept;His cleaved; copies: 1;1; label: surface-attached array probe
# Method in brief: as §1
# Sequence of FXR:RXRa (Q96RI1 whole entry, chain 1 of 2): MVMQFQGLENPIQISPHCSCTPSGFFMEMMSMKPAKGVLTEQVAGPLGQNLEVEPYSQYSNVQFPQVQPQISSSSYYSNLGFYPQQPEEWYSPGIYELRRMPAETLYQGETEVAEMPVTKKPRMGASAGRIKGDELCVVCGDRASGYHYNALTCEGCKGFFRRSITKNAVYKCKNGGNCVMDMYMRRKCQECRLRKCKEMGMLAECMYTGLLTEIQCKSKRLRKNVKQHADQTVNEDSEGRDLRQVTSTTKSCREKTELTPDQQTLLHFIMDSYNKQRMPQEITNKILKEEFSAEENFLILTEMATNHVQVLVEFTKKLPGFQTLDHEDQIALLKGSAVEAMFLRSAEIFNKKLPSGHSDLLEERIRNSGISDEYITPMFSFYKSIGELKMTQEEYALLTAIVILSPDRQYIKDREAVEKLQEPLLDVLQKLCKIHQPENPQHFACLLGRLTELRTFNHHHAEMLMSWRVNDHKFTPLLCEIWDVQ
# Sequence of FXR:RXRa (P19793 whole entry, chain 2 of 2): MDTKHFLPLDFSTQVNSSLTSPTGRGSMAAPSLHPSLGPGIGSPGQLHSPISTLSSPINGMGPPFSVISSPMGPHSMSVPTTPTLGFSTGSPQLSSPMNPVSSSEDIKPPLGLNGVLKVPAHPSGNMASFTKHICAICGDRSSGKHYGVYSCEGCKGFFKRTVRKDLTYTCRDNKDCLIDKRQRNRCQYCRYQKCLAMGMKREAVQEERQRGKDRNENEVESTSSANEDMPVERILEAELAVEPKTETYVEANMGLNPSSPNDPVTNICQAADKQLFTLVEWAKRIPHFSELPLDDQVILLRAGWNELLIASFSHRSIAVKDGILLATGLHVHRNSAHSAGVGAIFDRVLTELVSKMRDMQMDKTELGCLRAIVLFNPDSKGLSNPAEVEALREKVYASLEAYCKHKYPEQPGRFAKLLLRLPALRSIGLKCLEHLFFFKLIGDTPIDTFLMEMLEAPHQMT
# Sequence of VDR:RXRa (P11473 whole entry, chain 1 of 2): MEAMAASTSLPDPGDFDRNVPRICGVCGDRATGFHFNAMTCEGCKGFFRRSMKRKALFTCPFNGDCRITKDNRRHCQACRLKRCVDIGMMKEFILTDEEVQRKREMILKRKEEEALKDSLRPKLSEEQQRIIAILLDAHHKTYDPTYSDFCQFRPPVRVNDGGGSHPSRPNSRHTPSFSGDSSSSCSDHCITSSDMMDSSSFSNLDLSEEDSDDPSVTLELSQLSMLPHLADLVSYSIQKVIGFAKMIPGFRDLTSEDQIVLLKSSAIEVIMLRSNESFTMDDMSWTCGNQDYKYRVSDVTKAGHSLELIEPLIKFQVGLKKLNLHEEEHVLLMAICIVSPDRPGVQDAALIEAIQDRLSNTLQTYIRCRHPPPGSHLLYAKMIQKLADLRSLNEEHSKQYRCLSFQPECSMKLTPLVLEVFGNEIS
# Sequence of VDR:RXRa (P19793 whole entry, chain 2 of 2): as the sequence (P19793 whole entry, chain 2 of 2) above
# Sequence of RARg:RXRa (P13631 whole entry, chain 1 of 2): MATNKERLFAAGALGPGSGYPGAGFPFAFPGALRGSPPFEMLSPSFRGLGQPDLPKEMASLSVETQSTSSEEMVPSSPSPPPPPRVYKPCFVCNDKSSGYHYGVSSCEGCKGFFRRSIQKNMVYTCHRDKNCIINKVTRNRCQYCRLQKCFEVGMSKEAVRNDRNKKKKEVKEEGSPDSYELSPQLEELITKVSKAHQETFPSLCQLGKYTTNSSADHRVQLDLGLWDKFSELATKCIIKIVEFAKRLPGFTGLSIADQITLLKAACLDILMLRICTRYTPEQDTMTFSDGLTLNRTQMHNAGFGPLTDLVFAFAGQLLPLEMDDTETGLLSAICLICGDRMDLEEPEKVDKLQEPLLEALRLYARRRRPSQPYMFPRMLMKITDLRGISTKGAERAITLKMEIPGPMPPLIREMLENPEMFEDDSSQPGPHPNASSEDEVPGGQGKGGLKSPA
# Sequence of RARg:RXRa (P19793 whole entry, chain 2 of 2): as the sequence (P19793 whole entry, chain 2 of 2) above
# Sequence of LXRb:RXRa (P55055 whole entry, chain 1 of 2): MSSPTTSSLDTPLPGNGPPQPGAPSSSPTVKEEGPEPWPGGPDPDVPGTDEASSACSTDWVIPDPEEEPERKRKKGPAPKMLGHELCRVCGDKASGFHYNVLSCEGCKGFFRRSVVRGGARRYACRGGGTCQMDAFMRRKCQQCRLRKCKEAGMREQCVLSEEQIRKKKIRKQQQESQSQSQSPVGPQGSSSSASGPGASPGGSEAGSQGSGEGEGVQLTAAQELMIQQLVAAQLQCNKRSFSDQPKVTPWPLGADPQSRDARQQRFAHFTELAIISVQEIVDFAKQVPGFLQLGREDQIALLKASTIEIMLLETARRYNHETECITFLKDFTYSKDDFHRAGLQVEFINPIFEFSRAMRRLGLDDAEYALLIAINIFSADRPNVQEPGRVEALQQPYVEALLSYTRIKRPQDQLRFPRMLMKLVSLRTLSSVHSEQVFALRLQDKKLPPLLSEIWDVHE
# Sequence of LXRb:RXRa (P19793 whole entry, chain 2 of 2): as the sequence (P19793 whole entry, chain 2 of 2) above
# Sequence of RARb:RXRa (P10826 whole entry, chain 1 of 2): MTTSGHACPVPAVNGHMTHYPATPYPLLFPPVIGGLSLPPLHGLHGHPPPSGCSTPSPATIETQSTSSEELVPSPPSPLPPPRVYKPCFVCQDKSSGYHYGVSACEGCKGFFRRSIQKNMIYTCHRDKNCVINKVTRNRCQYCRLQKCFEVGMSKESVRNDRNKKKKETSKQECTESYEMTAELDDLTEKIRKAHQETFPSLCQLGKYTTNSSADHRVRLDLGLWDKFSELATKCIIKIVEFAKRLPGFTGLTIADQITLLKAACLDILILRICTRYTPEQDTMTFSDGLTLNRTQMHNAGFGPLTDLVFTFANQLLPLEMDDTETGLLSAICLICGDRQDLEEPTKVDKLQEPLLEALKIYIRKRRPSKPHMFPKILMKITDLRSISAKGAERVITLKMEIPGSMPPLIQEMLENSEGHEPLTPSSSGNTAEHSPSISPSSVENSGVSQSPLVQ
# Sequence of RARb:RXRa (P19793 whole entry, chain 2 of 2): as the sequence (P19793 whole entry, chain 2 of 2) above
# Sequence of RXRa (P19793 whole entry): as the sequence (P19793 whole entry, chain 2 of 2) above
Binder,binding signal (LXRb:RXRa),binding signal (VDR:RXRa),further results
B1,6.39 PBM z-score against 500 random probes,,
B2,6.26 PBM z-score against 500 random probes,,
B3,,0.33 PBM z-score against 500 random probes,binding signal (RXRa): 0.4 PBM z-score against 500 random probes
B4,6.04 PBM z-score against 500 random probes,,
B5,,8.17 PBM z-score against 500 random probes,binding signal (FXR:RXRa): 7.94 PBM z-score against 500 random probes
B6,,-0.96 PBM z-score against 500 random probes,binding signal (RXRa): -0.92 PBM z-score against 500 random probes; binding signal (RARb:RXRa): -0.98 PBM z-score against 500 random probes; binding signal (FXR:RXRa): -2.74 PBM z-score against 500 random probes
B7,,-0.43 PBM z-score against 500 random probes,binding signal (RARb:RXRa): -0.87 PBM z-score against 500 random probes; binding signal (FXR:RXRa): -0.07 PBM z-score against 500 random probes; binding signal (RARg:RXRa): -0.62 PBM z-score against 500 random probes
B8,6.37 PBM z-score against 500 random probes,,
B9,6.12 PBM z-score against 500 random probes,,
B10,,0.11 PBM z-score against 500 random probes,binding signal (FXR:RXRa): 0.46 PBM z-score against 500 random probes
B11,,-0.18 PBM z-score against 500 random probes,binding signal (RXRa): -0.06 PBM z-score against 500 random probes; binding signal (RARg:RXRa): -0.18 PBM z-score against 500 random probes
B12,,-0.37 PBM z-score against 500 random probes,binding signal (RARb:RXRa): -0.46 PBM z-score against 500 random probes; binding signal (FXR:RXRa): -0.32 PBM z-score against 500 random probes
B13,,-0.57 PBM z-score against 500 random probes,binding signal (RXRa): -0.37 PBM z-score against 500 random probes; binding signal (RARb:RXRa): -0.66 PBM z-score against 500 random probes; binding signal (RARg:RXRa): -0.47 PBM z-score against 500 random probes
B14,6.23 PBM z-score against 500 random probes,,
B15,6.19 PBM z-score against 500 random probes,,
B16,7.36 PBM z-score against 500 random probes,,
B17,6.72 PBM z-score against 500 random probes,,
B18,6.78 PBM z-score against 500 random probes,,
B19,,-0.69 PBM z-score against 500 random probes,binding signal (RARb:RXRa): -0.39 PBM z-score against 500 random probes
B20,,-0.59 PBM z-score against 500 random probes,binding signal (FXR:RXRa): -0.23 PBM z-score against 500 random probes
B21,7.24 PBM z-score against 500 random probes,,
B22,,-0.35 PBM z-score against 500 random probes,binding signal (RXRa): -0.18 PBM z-score against 500 random probes
B23,6.29 PBM z-score against 500 random probes,,
B24,,-0.22 PBM z-score against 500 random probes,binding signal (RXRa): -0.14 PBM z-score against 500 random probes; binding signal (FXR:RXRa): -0.37 PBM z-score against 500 random probes
B25,7.56 PBM z-score against 500 random probes,,
B26,,3.94 PBM z-score against 500 random probes,binding signal (RARb:RXRa): 3.04 PBM z-score against 500 random probes

# Source: article PMC6555819, “Comprehensive study of nuclear receptor DNA binding provides a revised framework for understanding receptor specificity”
